Source: patent US20240247047A1

Target: human BTLA (wild-type) on cells (human) (UniProt Q7Z6A9)
Experiment: cell-based or functional assay

Sequence of human BTLA (wild-type) on cells (human) (Q7Z6A9 31-289): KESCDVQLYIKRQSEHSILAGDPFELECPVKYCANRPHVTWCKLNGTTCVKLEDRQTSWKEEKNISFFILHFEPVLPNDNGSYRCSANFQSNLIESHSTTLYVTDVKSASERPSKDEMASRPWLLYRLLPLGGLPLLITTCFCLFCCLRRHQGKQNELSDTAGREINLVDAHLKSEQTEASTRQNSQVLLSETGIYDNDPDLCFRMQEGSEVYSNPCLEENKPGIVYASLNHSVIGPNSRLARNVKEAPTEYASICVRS

human CMV UL144-Fc (Fc fusion) gave an ERK1/2 phosphorylation, control JTAg cells activated with co-immobilized anti-CD3 and Fc protein of 50 to 70 % reduction, a ZAP70/Syk phosphorylation, JTAg cells with ectopic BTLA of 15 to 25% and a phosphorylation of ERK, Akt and cellular phosphotyrosines, BJAB cells activated with co-immobilized anti-IgM and titrated Fc protein of 50 % reduction.
